Reference: US11858974 (RESQ BIOTECH, dated 2024)

target: T1, SOD1(A4V), Ala4Val variant of human Cu/Zn superoxide dismutase 1 (human, UniProt P00441 2-154, A4V); assay: CD spectroscopy of isolated SOD1(A4V) incubated with synthetic cyclic peptide
T1 construct: Isolated from E. coli Origami 2(DE3) (pETSOD1(A4V) or pASK-SOD1 vectors); also called isolated SOD1(A4V); mutant SOD1
Method: Appropriate amounts of synthetic cyclic peptides were added to either 40 µM SOD1(A4V) or 50 µM Aβ solutions at the desired cyclic peptide:target protein molar ratio. SOD1(A4V) structural changes were monitored for 90 d at 25° C., under quiescent conditions. Aβ structural changes were monitored for 30 d at 33° C. under quiescent conditions. CD spectra in the range 190-260 nm were recorded on a JASCO J-715 spectropolarimeter (Jasco Co., Japan) using quartz cuvettes with 1 mm path length. Each reported spectrum is the average of three scans at a rate of 100 nm·min^-1 and a resolution of 0.5 nm.

T1 sequence (P00441 2-154 A5V): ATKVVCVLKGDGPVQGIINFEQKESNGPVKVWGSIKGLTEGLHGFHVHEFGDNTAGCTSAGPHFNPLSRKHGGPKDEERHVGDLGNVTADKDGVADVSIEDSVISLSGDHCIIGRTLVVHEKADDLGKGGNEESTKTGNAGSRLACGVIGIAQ

| binding result | Binder |
| --- | --- |
| no binding | TAFDR (head-to-tail cyclic peptide (cyclo-TAFDR), no free termini, Made by solid-phase synthesis (Genscript)) [AβC5-116 (cyclo-TAFDR)] |
| binds | TWSVW (head-to-tail cyclic peptide (cyclo-TWSVW), no free termini, Made by solid-phase synthesis (CPC Scientific); Backbone-cyclised pentapeptide; also called SODC5-4; selected cyclic pentapeptide SOD1C5-4) [SOD1C5-4 (cyclo-TWSVW)] |
| no binding | SASPT (head-to-tail cyclic peptide (cyclo-SASPT), no free termini, Made by solid-phase synthesis (Genscript); also called Aβ-targeting cyclic 5-peptide number 34) [AβC5-34 (cyclo-SASPT)] |
